According to patent US5773647A, “Compounds and compositions for delivering active agents” (Emisphere Technologies, Inc., priority 1997, dated 1998):
Where two headings read alike, the source gives them in different places.

Assays:
[1] = In vivo interferon delivery (ELISA for human interferon); conditions: 1 mg/kg interferon, no carrier
Experimental: (§1) An intracolonic dosing composition containing 50 mg/kg of carrier 9 and 250 μg/kg of interferon in 50% propylene glycol was prepared. Rats were administered the dosing composition by intracolonic instillation.
(§2) Rats were administered, orally and by intracolonic instillation, dosing solutions of 1 mg/kg of interferon and no carrier.

[2] = rat, in vivo, 50 mg/kg
Experimental: as §1, §2

| Compound | Mean peak serum interferon concentration ([1]; intracolonic (IC)) | Mean peak serum interferon concentration ([1]; oral (PO)) | Mean peak serum interferon concentration [2] |
| --- | --- | --- | --- |
| interferon | 79±100 | 1951±1857 | – |
| O=C(O)CCCc1ccc(NC(=O)COc2ccccc2)cc1 [Compound 9] | – | – | 2611±695 |
